Test results reported in patent publication US9663570B2, “Single domain antibodies directed against KRAS” (SINGH MOLECULAR MEDICINE, LLC, priority 2014, dated 2017).
Where “and” joins values, the source holds several entries; their conditions need not be identical. Equal values may be shown once.

B1: anti-TNF-alpha VHH69: second anti-TNF-alpha sdAb (SEQ ID NO. 46) (protein)
VHH: EVQLVESGGGSVLAGGSLRLSCVASGFTSRYNYMAWFRQAPGKEREGVATIGTASGSADYYGSVKDRFTISQDNAKNTVYLQMNSLKPEDTAMYYCAARTYGTISLTPSDYRYWGQGTLVTVSS
modifications: Camelid
B2: B.VHH14: second anti-STAT3 sdAb, named VHH14 (SEQ ID NO. 4) (protein)
VHH: QVQLVESGGGSVQAGGSLRLSCVASTYTGCMGWFRQAPGKEREGVAALSSRGFAGHYTDSVKGRFSISRDYVKNAVYLQMNTVKPEDAAMYYCAAREGWECGETWLDRTAGGHTYWGQGTLVTVSS
modifications: Camelid
B3: anti-TNF-alpha VHH62: third anti-TNF-alpha sdAb (SEQ ID NO. 47) (protein)
VHH: QVQLVESGGGPVQAGETLRLSCTASGFTFAEADMGWYRQAPGHECELVSTITTEGITSEASSYYADSVRGRFTISRDNAKNMVYLQMNSLKPEDTAVYYCAPDPYAYSTYSDYCSWAQGTQGTLVTVSS
modifications: Camelid

Key:
TNF-alpha = target: T1, TNF-alpha (Homo sapiens, UniProt P01375); assay: Inhibition of TNF-alpha cytotoxicity against U937 by anti-TNF-alpha sdAbs; assay type: cell-based; conditions: constant dose of TNF-alpha at EC50
T1 construct: host or cells: added exogenously to U937 cells

MDA-MB-231 cells = assay: MTT proliferation assay, MDA-MB-231; assay type: cell-based, human; conditions: for Mean Absorbance (570 nM) ± S.E., Overall Mean: mean of 4 experiments; for Mean Growth Inhibition: individual experiments 1-4;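 as to all read-outs here: cultures held at 37 °C in humidified 5% CO2, treated groups compared against vehicle-treated controls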

T1 sequence (P01375 77-233 limits assumed): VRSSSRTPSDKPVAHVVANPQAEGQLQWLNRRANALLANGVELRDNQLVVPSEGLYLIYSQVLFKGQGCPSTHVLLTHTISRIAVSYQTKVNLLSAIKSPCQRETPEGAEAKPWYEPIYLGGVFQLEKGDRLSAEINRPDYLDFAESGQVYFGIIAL

| Molecule | inhibition of killing of U937 by TNF-alpha (TNF-alpha) | Mean Absorbance (570 nM) ± S.E. (MDA-MB-231 cells; Day 3, 10.0 μg/ml, individual experiments 1-4 (Table 6)) | Mean Absorbance (570 nM) ± S.E., Overall Mean (MDA-MB-231 cells; Day 3, 10.0 μg/ml) | Mean Absorbance (570 nM) ± S.E. (MDA-MB-231 cells; Day 3, 100 μg/ml, individual experiments 1-4 (Table 6)) | Mean Absorbance (570 nM) ± S.E., Overall Mean (MDA-MB-231 cells; Day 3, 100 μg/ml) | Mean Absorbance (570 nM) ± S.E. (MDA-MB-231 cells; Day 5, 10.0 μg/ml, individual experiments 1-4 (Table 7)) | Mean Absorbance (570 nM) ± S.E., Overall Mean (MDA-MB-231 cells; Day 5, 10.0 μg/ml) | Mean Absorbance (570 nM) ± S.E. (MDA-MB-231 cells; Day 5, 100 μg/ml, individual experiments 1-4 (Table 7)) | Mean Absorbance (570 nM) ± S.E., Overall Mean (MDA-MB-231 cells; Day 5, 100 μg/ml) | Mean Growth Inhibition (MDA-MB-231 cells; post 3 days, 10.0 μg/ml) | Mean Growth Inhibition (MDA-MB-231 cells; post 3 days, 100 μg/ml) | Mean Growth Inhibition (MDA-MB-231 cells; post 5 days, 10.0 μg/ml) | Mean Growth Inhibition (MDA-MB-231 cells; post 5 days, 100 μg/ml) |
| --- | --- | --- | --- | --- | --- | --- | --- | --- | --- | --- | --- | --- | --- |
| B1 | inhibit killing of U937 by TNF-alpha | – | – | – | – | – | – | – | – | – | – | – | – |
| B2 | – | 0.456 ± 0.048 and 0.499 ± 0.018 and 0.502 ± 0.048 and 0.559 ± 0.041 | 0.504 ± 0.021 | 0.255 ± 0.005 and 0.357 ± 0.019 and 0.308 ± 0.021 and 0.287 ± 0.021 | 0.302 ± 0.043 | 0.640 ± 0.011 and 0.338 ± 0.023 and 0.930 ± 0.044 and 0.842 ± 0.052 | 0.688 ± 0.131 | 0.549 ± 0.023 and 0.274 ± 0.032 and 0.578 ± 0.039 and 0.499 ± 0.036 | 0.475 ± 0.0690 | 23.1% and 20.0% and 38.5% and 23.3% | 57.0% and 42.8% and 62.3% and 60.6% | 5.5% and 25.9% and 5.4% and 22.9% | 18.9% and 39.9% and 41.2% and 54.3% |
| B3 | inhibit killing of U937 by TNF-alpha | – | – | – | – | – | – | – | – | – | – | – | – |
